Data on seven molecules can be found in patent US20140294837A1 (SAMSUNG ELECTRONICS, published 2014).

The target of assay [1] is c-Met on cells (MKN45, Caki-1, NCI-H441, HUVEC) (human, UniProt P08581 25-1390). In words: cell-based or functional assay.
Assay [2] deals with T1, c-Met (R&D Systems, Cat. No. 358-MT/CF) (UniProt P08581 25-932).
T1 construct: Bought protein used as analyte in SPR
In words: SPR, Biacore T100; antibody captured by human Fab binder on CM5 chip, c-Met injected. The protocol: The binding kinetics of the double-targeted fusion proteins manufactured in the above were analyzed using Biacore T100 instrument (GE Healthcare). A human Fab binding agent (GE Healthcare) was immobilized on the surface of a CM5 chip (GE Healthcare, Cat. No. BR-1005-30) according to the manufacturer's manual. […] Then, 10 mM Glycine-HCl (pH 1.5) solution was added thereto, whereby the surface was regenerated. In order to measure the binding kinetics, the data obtained from the above experiment was fitted using BIAevaluation software (GE Healthcare, Biacore T100 evaluation software).
A general note: SPR reads the build-up and loss of mass on a sensor chip optically.

In assay [3] the target is hVEGF (GE Healthcare, 28-9583-25) (human, UniProt P15692-4 27-191). In words: SPR, Biacore T100; hVEGF immobilized on CM5 chip, MV10AY at 6 concentrations. As to the method:
The binding kinetics of the double-specific antibodies having VEGF as a target were measured by an SPR method using Biacore T100 instrument (GE Healthcare). hVEGF (GE Healthcare, 28-9583-25) was immobilized on the surface of a CM5 chip according to the manufacturer's manual. […] The obtained surface was regenerated by injecting 1M NaCl+30 mM NaOH at a fluid rate of 30 μl/min for 60 sec. In order to determine binding kinetics, the data obtained from the above experiment was fitted using BIAevaluation software (GE Healthcare) (K_{D=}=0.45 nM).

Assay [4] concerns the target T2, human c-Met/Fc fusion protein (R&D Systems) (human, UniProt P08581 25-932).
T2 construct: Immunogen and ELISA antigen; also called human c-Met/Fc protein; not shown: Fc part of the bought fusion protein; not described
Nature of the assay: ELISA, hybridoma culture on plate-coated human c-Met/Fc fusion protein. In general terms: ELISA stands for enzyme-linked immunosorbent assay.

What is called Kd is the equilibrium constant for the complex coming apart. The low end stands for tighter binding, the high end for weaker binding. The koff is the rate constant with which the complex falls apart. Lower therefore signals a long-lived complex. Broadly, the kon is the rate constant with which the complex forms.

Numbering of substitutions follows the chain as printed.

T1 sequence (P08581 25-932 limits assumed): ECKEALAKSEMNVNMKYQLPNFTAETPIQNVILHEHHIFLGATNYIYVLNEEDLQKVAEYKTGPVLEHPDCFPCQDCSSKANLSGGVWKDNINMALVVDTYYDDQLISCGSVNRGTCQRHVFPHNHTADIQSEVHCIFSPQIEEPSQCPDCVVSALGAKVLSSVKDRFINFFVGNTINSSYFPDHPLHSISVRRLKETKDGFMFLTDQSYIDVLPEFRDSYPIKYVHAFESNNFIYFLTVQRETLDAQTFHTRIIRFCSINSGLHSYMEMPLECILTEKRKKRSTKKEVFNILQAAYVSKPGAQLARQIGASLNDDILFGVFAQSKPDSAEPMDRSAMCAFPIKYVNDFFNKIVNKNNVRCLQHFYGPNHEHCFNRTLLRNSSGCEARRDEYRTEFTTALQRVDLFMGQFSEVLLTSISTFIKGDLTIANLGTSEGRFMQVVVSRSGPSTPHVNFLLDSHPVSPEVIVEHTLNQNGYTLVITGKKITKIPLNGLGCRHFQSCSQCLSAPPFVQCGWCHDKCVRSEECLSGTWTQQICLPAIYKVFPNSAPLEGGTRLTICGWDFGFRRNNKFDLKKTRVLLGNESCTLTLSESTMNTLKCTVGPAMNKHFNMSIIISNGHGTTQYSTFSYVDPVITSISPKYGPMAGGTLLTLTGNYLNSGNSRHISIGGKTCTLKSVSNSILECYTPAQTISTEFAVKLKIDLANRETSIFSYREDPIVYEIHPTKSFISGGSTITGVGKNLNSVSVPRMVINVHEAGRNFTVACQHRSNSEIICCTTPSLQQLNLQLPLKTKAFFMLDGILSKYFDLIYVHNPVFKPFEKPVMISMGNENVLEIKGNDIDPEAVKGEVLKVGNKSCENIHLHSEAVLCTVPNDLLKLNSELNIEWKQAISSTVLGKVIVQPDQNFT
Chain of hVEGF (GE Healthcare, 28-9583-25) (P15692 other isoform, or with tags, fused parts or gaps limits assumed): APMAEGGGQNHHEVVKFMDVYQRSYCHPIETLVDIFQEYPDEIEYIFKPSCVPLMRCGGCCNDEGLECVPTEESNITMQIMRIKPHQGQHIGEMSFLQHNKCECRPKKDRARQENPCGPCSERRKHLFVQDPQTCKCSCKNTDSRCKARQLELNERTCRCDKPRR
Chain of c-Met on cells (MKN45, Caki-1, NCI-H441, HUVEC) (P08581 25-1390): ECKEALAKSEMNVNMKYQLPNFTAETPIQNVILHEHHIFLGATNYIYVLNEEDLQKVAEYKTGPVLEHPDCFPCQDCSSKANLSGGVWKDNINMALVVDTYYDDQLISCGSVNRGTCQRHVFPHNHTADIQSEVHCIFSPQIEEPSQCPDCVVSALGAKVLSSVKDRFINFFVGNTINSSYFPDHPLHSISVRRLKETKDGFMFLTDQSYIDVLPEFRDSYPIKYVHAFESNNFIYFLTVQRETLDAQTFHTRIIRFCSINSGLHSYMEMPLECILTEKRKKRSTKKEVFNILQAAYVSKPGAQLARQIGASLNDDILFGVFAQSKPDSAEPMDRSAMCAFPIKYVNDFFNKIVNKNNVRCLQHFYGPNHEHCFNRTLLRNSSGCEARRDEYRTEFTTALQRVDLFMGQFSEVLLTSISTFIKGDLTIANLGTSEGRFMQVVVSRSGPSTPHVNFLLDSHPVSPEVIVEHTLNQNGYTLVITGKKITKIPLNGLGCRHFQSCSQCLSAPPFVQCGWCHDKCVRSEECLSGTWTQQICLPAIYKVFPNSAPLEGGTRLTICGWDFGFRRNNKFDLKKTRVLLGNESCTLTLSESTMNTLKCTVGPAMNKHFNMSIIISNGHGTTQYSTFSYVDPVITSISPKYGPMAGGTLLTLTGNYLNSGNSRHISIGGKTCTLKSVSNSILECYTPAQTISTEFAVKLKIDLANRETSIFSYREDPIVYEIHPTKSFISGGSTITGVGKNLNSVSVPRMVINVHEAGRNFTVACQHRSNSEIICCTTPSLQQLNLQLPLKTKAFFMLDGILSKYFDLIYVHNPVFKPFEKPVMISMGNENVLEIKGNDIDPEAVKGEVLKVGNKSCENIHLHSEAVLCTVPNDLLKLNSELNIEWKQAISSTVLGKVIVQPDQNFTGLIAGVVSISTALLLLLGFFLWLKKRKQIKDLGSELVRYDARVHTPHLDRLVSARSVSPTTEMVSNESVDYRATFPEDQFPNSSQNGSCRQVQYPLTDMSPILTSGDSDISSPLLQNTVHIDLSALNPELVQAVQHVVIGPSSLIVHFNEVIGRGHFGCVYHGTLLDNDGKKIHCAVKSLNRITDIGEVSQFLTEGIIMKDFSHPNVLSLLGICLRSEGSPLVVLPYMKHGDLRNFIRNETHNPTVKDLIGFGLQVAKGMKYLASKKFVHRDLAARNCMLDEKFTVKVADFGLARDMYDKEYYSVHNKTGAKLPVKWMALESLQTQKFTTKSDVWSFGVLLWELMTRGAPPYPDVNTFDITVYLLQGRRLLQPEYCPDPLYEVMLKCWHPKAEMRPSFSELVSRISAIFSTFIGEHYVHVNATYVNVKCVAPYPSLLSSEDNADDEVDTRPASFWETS
T2 sequence (P08581 25-932 limits assumed): as the sequence (P08581 25-932 limits assumed) above

B1: MV10A (bispecific antibody)
heavy: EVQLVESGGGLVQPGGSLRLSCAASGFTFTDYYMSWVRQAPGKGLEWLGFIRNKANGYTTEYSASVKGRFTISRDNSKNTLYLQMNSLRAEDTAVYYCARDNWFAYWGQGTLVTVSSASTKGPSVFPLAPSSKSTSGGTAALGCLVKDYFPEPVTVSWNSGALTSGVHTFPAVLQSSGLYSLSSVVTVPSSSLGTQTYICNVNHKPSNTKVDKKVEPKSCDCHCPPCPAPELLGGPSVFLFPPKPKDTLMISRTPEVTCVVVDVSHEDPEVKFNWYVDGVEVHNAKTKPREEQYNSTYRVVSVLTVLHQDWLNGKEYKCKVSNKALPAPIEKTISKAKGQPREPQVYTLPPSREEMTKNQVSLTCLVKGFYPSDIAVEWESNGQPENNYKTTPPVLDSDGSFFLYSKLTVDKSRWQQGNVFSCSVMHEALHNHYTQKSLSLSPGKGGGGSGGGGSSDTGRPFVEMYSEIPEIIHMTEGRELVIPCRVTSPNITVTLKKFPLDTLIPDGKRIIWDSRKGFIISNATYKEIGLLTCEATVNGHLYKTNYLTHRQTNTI
light: DIQMTQSPSSLSASVGDRVTITCKSSQSLLASGNQNNHLAWYQQKPGKAPKMLIIWASTRVSGVPSRFSGSGSGTDFTLTISSLQPEDFATYYCQQSYSRPYTFGQGTKVEIKRTVAAPSVFIFPPSDEQLKSGTASVVCLLNNFYPREAKVQWKVDNALQSGNSQESVTEQDSKDSTYSLSSTLTLSKADYEKHKVYACEVTHQGLSSPVTKSFNRGEC
Turning to B1, in assay [1], the “AKT phosphorylation inhibitory ability (phospho-AKT Ser473 ELISA, Caki-1 cells, compared to 5D5 control group)” value is 79% and the “c-Met degradation ability (total c-Met ELISA, MKN45 cells, 5 ug/ml antibody, 24 h)” value stood at 76%.

B2: MV10AY (bispecific antibody)
heavy: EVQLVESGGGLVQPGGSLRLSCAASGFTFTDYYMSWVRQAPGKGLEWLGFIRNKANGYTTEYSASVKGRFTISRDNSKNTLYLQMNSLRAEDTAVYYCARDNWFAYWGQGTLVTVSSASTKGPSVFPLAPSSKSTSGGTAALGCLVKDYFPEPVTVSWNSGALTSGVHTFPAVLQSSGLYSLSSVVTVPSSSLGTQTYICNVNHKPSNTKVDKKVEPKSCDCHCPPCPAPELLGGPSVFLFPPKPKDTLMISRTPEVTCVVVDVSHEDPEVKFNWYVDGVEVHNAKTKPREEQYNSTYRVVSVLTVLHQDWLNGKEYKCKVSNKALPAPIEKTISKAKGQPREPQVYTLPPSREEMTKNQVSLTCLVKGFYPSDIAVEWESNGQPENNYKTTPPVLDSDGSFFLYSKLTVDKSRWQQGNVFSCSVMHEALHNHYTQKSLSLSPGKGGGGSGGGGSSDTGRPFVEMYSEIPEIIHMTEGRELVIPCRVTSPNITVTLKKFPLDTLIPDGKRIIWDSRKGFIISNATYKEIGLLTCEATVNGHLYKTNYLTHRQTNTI
light: B1 light with H38Y
notes: also called bispecific antibody MV10AY; double-specific antibody MV10AY
For B2, in assay [1], the “AKT phosphorylation inhibitory ability (phospho-AKT Ser473 ELISA, Caki-1 cells, compared to 5D5 control group)” value worked out at 74% and the “c-Met degradation ability (total c-Met ELISA, MKN45 cells, 5 ug/ml antibody, 24 h)” value worked out at 72%. In assay [2], the Kd is < 0.01 nM, the koff is < 1.4e-05 s⁻¹ and the association rate constant (kon) came out at 680000 M⁻¹ s⁻¹. In assay [3], the Kd was 0.45 nM, the koff was 0.0011 s⁻¹ and the kon came out at 2.4e+06 M⁻¹ s⁻¹.

B3: MV10AY U3 HC9/IgG2 (bispecific antibody)
heavy: EVQLVESGGGLVQPGGSLRLSCAASGFTFTDYYMSWVRQAPGKGLEWLGFIRNKANGYTTEYSASVKGRFTISRDNSKNTLYLQMNSLRAEDTAVYYCARDNWFAYWGQGTLVTVSSASTKGPSVFPLAPCSRSTSESTAALGCLVKDYFPEPVTVSWNSGALTSGVHTFPAVLQSSGLYSLSSVVTVPSSNFGTQTYTCNVDHKPSNTKVDKTVERKCCVECPPCPAPPVAGPSVFLFPPKPKDTLMISRTPEVTCVVVDVSHEDPEVQFNWYVDGVEVHNAKTKPREEQFNSTFRVVSVLTVVHQDWLNGKEYKCKVSNKGLPAPIEKTISKTKGQPREPQVYTLPPSREEMTKNQVSLTCLVKGFYPSDIAVEWESNGQPENNYKTTPPMLDSDGSFFLYSKLTVDKSRWQQGNVFSCSVMHEALHNHYTQKSLSLSPGKGGGGSGGGGSSDTGRPFVEMYSEIPEIIHMTEGRELVIPCRVTSPNITVTLKKFPLDTLIPDGKRIIWDSRKGFIISNATYKEIGLLTCEATVNGHLYKTNYLTHRQTNTI
light: B1 light with H38Y
For B3, in assay [2], the Kd was < 0.01 nM, the koff was < 6.9e-05 s⁻¹ and the kon came out at 720000 M⁻¹ s⁻¹.

B4: AbF46, a mouse antibody to c-Met (antibody, V domains shown)
VH: EVKLVESGGGLVQPGGSLRLSCATSGFTFTDYYMSWVRQPPGKALEWLGFIRNKANGYTTEYSASVKGRFTISRDNSQSILYLQMDTLRAEDSATYYCARDNWFAYWGQGTLVTVSA
VL: DILMTQSPSSLTVSAGEKVTMSCKSSQSLLASGNQNNYLAWHQQKPGRSPKMLIIWASTRVSGVPDRFIGSGSGTDFTLTINSVQAEDLAVYYCQQSYSAPLTFGAGTKLELK
notes: also called monoclonal antibody of hybridoma KCLRF-BP-00220
With B4, in assay [4], the binding result is listed as “binds”.

B5: huAbF46-H4-A1 (L3-1 origin) (antibody, V domains shown)
VH: EVQLVESGGGLVQPGGSLRLSCAASGFTFTDYYMSWVRQAPGKGLEWLGFIRNKANGYTTEYSASVKGRFTISRDNSKNTLYLQMNSLRAEDTAVYYCARDNWFAYWGQGTLVTVSS
VL: DIQMTQSPSSLSASVGDRVTITCKSSQSLLASGNQNNHLAWYQQKPGKAPKMLIIWASTRVSGVPSRFSGSGSGTDFTLTISSLQPEDFATYYCQQSYSRPYTFGQGTKVEIKR
As for B5, in assay [1], the “AKT phosphorylation inhibitory ability (phospho-AKT Ser473 ELISA, Caki-1 cells, compared to 5D5 control group)” value came to 69% and the “c-Met degradation ability (total c-Met ELISA, MKN45 cells, 5 ug/ml antibody, 24 h)” value is 68%.

B6: L3-1Y (antibody, V domains shown)
VH: B5 VH
VL: B5 VL with H38Y
notes: also called c-Met single-targeted antibody L3-1Y
In the case of B6, in assay [1], the “AKT phosphorylation inhibitory ability (phospho-AKT Ser473 ELISA, Caki-1 cells, compared to 5D5 control group)” value worked out at 63% and the “c-Met degradation ability (total c-Met ELISA, MKN45 cells, 5 ug/ml antibody, 24 h)” value is 66%. Moreover, in assay [2], the Kd is < 0.01 nM, the koff was < 1.2e-05 s⁻¹ and the kon came out at 770000 M⁻¹ s⁻¹.

B7: Ab2 (antibody, V domains shown)
VH: QVQLVQSGAEVKKPGASVKVSCKASGYIFTAYTMHWVRQAPGQGLDWMGGIKPNNGLANYAQKFQGRVTMTVDKSISTAYMELSRLRSDDTAVYYCARSEITTEFDYWGQGTLVTVSS
VL: DIVLTQSPDSLAVSLGERATINCRSSESVDSYANSFMHWYQQKPGQPPKLLIYRASTRESGVPDRFSGSGSRTDFTLTISSLQAEDVAVYYCQQSKEDPLTFGGGTKVEIKR
For the molecule B7, the “c-Met degradation ability (total c-Met ELISA, method of Example 2.2)” value in assay [1] came out at 70.4%.
